Test results published in US20220125891A1 (OSAKA UNIVERSITY, published 2022).

Legend:
[1] = biological target: T1, full-length human Regnase-1 with a FLAG tag on the N-terminal side and a biotin ligase BirA recognition … (human, UniProt Q5D1E8 1-599, biotinylated where required ; Biotinylated at the BirA recognition sequence where required. That sequence is not in the letters.); assay: flow cytometry of antigen-coated streptavidin beads
T1 construct: Expressed in Expi293 cells, purified on FLAG M2 agarose and by gel filtration; also called full-length Regnase-1; human full-length Regnase-1
T1 sequence: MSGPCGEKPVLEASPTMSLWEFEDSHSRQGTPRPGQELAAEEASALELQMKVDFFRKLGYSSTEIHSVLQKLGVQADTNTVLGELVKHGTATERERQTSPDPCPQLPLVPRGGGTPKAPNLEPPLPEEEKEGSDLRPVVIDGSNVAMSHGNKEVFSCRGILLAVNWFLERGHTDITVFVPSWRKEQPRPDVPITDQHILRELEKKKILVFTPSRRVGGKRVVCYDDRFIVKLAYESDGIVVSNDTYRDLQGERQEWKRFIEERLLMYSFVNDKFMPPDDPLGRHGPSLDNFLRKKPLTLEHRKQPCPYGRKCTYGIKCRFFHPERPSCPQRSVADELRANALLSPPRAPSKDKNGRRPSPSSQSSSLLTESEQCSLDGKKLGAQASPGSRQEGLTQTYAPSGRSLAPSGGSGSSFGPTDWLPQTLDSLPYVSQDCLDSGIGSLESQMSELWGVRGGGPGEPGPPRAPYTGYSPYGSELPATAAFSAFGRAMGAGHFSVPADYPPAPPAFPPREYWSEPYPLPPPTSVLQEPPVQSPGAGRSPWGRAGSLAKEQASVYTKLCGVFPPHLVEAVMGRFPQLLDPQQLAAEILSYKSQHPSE

[2] = biological target: T2, Peptide 1 (CLDSGIGSLESQMSELWGVRGG), biotin-conjugated (human, biotin-conjugated); assay: as above
T2 construct: also called human Regnase-1 peptide
T2 peptide: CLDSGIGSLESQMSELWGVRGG

B1: REA0027 (antibody, V domains shown)
VH: QSLEESGGDLVKPGASLTLTCTASGFGFSSSYWMHWVRQAPGKGLEWIACINAGSSTKTYYASWAKGRFTISKPSSTTVTLQMTSLTVADTATYFCAWSFNLWGPGTLVTVSS
VL: AVVTQTPSSVSAAVGGTVTIKCQSSQSVGNNNWLAWFQQKPGQPPKLLIYSASTLASGVPSRFSGSGSGTQFTLTISGVQCDDAATYYCLGGYDGDGEAFYVFGGGTEVVVKG
notes: Rabbit antibody gene expressed in HEK293 cells, purified by Protein A; also called anti-Regnase-1 antibody; anti-non-phosphorylated Regnase-1 peptide antibody
B1: binds [1]; binds [2].
